The text below walks through data of the DeepSol protein solubility set.

A short description of this series: soluble on expression in E. coli; label from the status in PepcDB or PDB records.
Take “MRLKDLGERALLARLAPLGYPPEAPLPPGDDAGGVWAEGRAWLLKTDGFLYREVALKGMGPFEVGFRGVAATASDLLAKMGRPLGFTLGLFLPEDLEEGFVLELVRGAAEAAKRLGAFLLGGDTNRGVEVALTVSGYALAEAPLPRKALPGDLLYLAGDRWGRTGAAIRAHYEGRSLEGFPKIREAAFYPLPRLELLALSGLLRGSLDSSDGLAETLWQLADLGVGVEVEALPLYPDVLAFAGSEEAALELVLYGGEEFEAVLVVPQEGAAAVEARAKAKGLPLFRAGRVVAGEGVYLRGAPLPRKGYAHF”: the “soluble on expression in E. coli” value is listed as “soluble”. Next, “MRLLDIWMRSAAALMLLSGAAFADVTVSQSNDPSVSLGGQLSALLGAERSALGTLPAQRLEQVAAAVARPEAKPEAPVKAVATKGNRGAKAADDAPAPRYDEAWLASQPATAKDSDEWKCLATALYFEARGESIQGQFAVAEVIMNRVDRPGYPGSICGVVRQGGQFSFMFDGKPETIREKAAFQRAGKIAALMLAGAPRQLTQGATHFHTRAVRPGWAHRFPRTAAIGAHLFYRQPGGS”: “not soluble”; “MRLLTWDVKDTLLRLRHPLGEAYATKARAHGLEVEPSALEQGFRQAYRAQSHSFPNYGLSHGLTSRQWWLDVVLQTFHLAGVQDAQAVAPIAEQLYKDFSHPCTWQVLDGAEDTLRECRTRGLRLAVISNFDRRLEGILGGLGLREHFDFVLTSEAAGWPKPDPRIFQEALRLAHMEPVVAAHVGDNYLCDYQGPRAVGMHSFLVVGPQALDPVVRDSVPKEHILPSLAHLLPALDCLEGSAENLYFQSHHHHHHDYKDDDDK”: “soluble”; “MRLLVSCVDSGSIKEVLCNIGTDTSVQSALQPFHVAPHLAEGLKAYVDRMWVISEDEAILARNSGVVELVKISKHLKENEALQVDPKGESKNEKSLSDDLPKFDISEFEITSSVSDLFDDAKLESLSSKSVKRTKLVDGFVTLCPIKKDSSNNTFVAATKSGLLHIIKKGEDKKLIKLASLGLKAPVEFLQLYDLEDTDTDKYIFAYGGEENLIKLVEIDSSFQSLKQIWEAKNVKNDRLDMRVPVWPMALRFLEPSPGKTEKGKLNYQFAAITRWSHLTKYSTQHGRKPFAQIDLLPNREPLSQMEVFDAKGENVVSSLGNFQSETFNELNVITTDYKKNVFKFDGNGRMLGKVGRDDITGSSTYIHVHDGKYLLQGGLDRYVRIFDIKTNKMLVKVYVGSRINFIVMLDDVEIEMPLSPSAKAAKGKQKRKVTELEEDADELWNKLEGKVAASKASKKSKI”: “soluble”. Next, “MRLPPMLDNLTRMARMNDNQHRFALSDLYRFVNGPWLDSHVIPEDRGVDGIFHGLRDRAEEDVHTIVMDSADSLAGKLYASFMDTEGIESAGVAALDKDLTLIDVATVPEFVQALGALDRVGVGGPVGFWVAKDSAGDKSVAYIMQSGITLPDEAYYREESHAQTREAYQKHVEKMLGFLAPEQLGTTPIDAATRILALETDIAAAHWDVVQRRDAVKTFNPTEMAELPPQVAALLRAAGLPEHRVISMMPSYFEALESLLTPQRLDDWKLLTTWRILHSRAGVLTPEISRADFEFFGTTLSGATQQRDRWKRALGLAESFVGEEIGALYVERHFPESSKKDMLSLVSYLIEAYRERISGLSWMTPETRERALDKLDKFNAKIGYPDSWRSYAGLEFSAKGTDLL”: “not soluble”; “MRLSFLTLQRRHALRDALRHKPAPRCRTQERTQSVQNGMPTRSVARLEHHHHHH”: “not soluble”. Take “MRMNIRVALPQAQVHWCRGWLQAAHADALMQALLDQVQWEVHRIRMFGRVVDSPRLSSWIGDADASYRYSGTQFAPQPWLEALQPVRTRLQDETGSPFNSVLVNRYRSGADAMGWHSDDEPELGAQPVIASLSLGAARRFAFKHRHDAALKQTLELGHGDLLLMGGDTQRHYKHALPRTVKPVGERINLTFRQIAVRVSQRLEHHHHHH”: the “soluble on expression in E. coli” value was “not soluble”.

For the sequence “MRMSSNFRNPCMIRSDVPLSNDQIAHYVPSIFAEEAHDSRSARYLYIPTVQVLDALRAEGFEPFMACQTRVRDQGKREHTKHMLRLRHASQILDQEANEVILLNSHDGSSSYQMIGGKFRFVCANGLVLGDVAADQKVRHSGRGDVVHDVIEGAFEVLKHFEQIDHITADMKHQQLDQDEQEAFALAALAYRYDPAEGPAPVTPSQLLMPRRREDRSSDLWTTFNRVQENTIKGGLTGRNKQGRRTTTRAVNGIDQDVKLNRALWVLAQAMGEHRKAA”, the “soluble on expression in E. coli” value was “not soluble”. Next, “MRNFKKPDVLVSKCLEHGRCRYDGQMISSDFVKSTKKYFNYVPVCPEVEIGLSIPRNSLKIVFENEKFEFVQNITNNNYTSKITQFSSDFLDSIENIDGAVLKHKSPSCGIKNVKVYTAKGNPTNQKTEGFFAKEVLYRYSNIAIEEESRLRNKRIKDHFLTKLYTIKDFKEVKESESIKNLIEFHTNNKFLFMAYNQKQKDILGNIVGNHNKNFDKIIKLYEKHLQLLLKRPSAIGSNINVLMHIFGYMSNKISKDEKLLFIDSLQRYHDELDCLCVPIILLKSWVIRFNVDYLKKQTYFEPFPQELADNSEMFKRDYWND”: “not soluble”; “MRNHYMSMYDMRQFFKTYFSSASEKSILVKLLDKRFHPPSHTANILDLGCHDGALMKNIVNAYAKRLPEKLVITGVDPSLQAIKEYAKADFPIPVQTNTFAGTAEDYFDVCTDHFDWIFASQCLYWSPDLPKIIKQIHETGDSALIVIRGCHGIYEIQSQFRHYIGNHLEKFYTDKEVEMALRTQKILFQKESLSTSIRLPDKDSIELKWLILFFLQMEEESLGDKIFCEVRDWITSRTSGSIHHEVHFFWLGNAILQGITI”: “not soluble”; “MRNLIISAALVAASLFGMSAQAAEPIESGKQYVELTSAVPVAVPGKIEVIELFWYGCPHCYAFEPTINPWVEKLPSDVNFVRIPAMFGGPWDAHGQLFITLDTMGVEHKVHAAVFEAIQKGGKRLTDKNDMADFVATQGVNKDDFLKTFDSFAVKGKIAQYKELAKKYEVTGVPTMIVNGKYRFDLGSAGGPEKTLQVADQLIDKERAAAKAAK”: “not soluble”. Regarding “MRNVLKAETLERKFPLLSVENGCIVSKDADLTVAFEVELPELYTVTAEEYEAMHSTWIKAARVLPEHSIVCKQDWFTKESYRPQNGGEEQSFLSRSYERHFNERPYLNHRCFLYLTKTTRERNRRQSDFSTLCRGFLLPREITDKDMAARFLEAVEQFEHIVNDSGHIRLRRLETEEITGTRERPGLVEKYLSLSMEDETAVLQDICLKPGRMRIGDKRLCLHTLSDTEDLPGKLSTDMRYERMSTDRSDCRLSFAAPVGLLLSCNHIYSQYVFIDNAQKILQMMEKNSRNMLSLSQYSRSNAVNQEWTEMYLDEAHTKGVLPVRCHCNVIAWAEDAEEFRRIRNDTGSQLAMMECTPRYNTVDTPVLYWAGIPGNAGDFPAEESFYTFLEQAVCLFAGETNYRSSPSPFGIRMADRQNGIPVHVDISDLPMKRGIITNRNKFILGPSGSGKSFFTNHLVRNYYEQGAHILLVDTGNSYQGLCRMIHERTRGGDGIYITYEEDNPISFNPFYTDSGQFDVEKRESIKTLILTLWKREDEAPKRSEEVALSGAVNAYIRKITENREARPDFNGFYEFVDGDYRRMIAEKKVREKDFDIDGFLNVLEPFYKGGDYDFLLNSDRELDLTNRRFIVFELDNISGNKVLLPVVTLIIMETFIAKMRRLKGIRKVILIEECWKALMSANMSGYIQYLFKTVRKYFGEAVVVTQEVDDIISSPIVKEAIINNSDCKILLDQRKYMNKFEHIQRLLGLTEKEKSQILSINQANHPGRFYREVWIGLGGTRSAVYATEVSAEEYFTFTTEESEKLEVQRLAEELDGNLELAIRRMAERKREEQRQVSIPKREQ”, the “soluble on expression in E. coli” value is recorded as “not soluble”. Next, “MRPDDAIELFNSCRGHCIERQNYIENLQKRHVRKNRNVSAPRTDGLEDSADPTEQVYTNNKPVKKKPRKNRRGGHLAPSQHFQHQTQSSPYSLRKWSQNQSVYQRGLVPPPGPAGEDYSQRRFFWSARPNKWTAESYQRPFYPYYWEWNL”: “not soluble”.

For “MRPGLSAKRLVVKVGSAVLTGERGLDLEAMAEIARQVAALREEGREVVLVSSGAVAAGMRRLGLKERPKDMPKKQALAALGQPLLMAFWQEAFAPFGLPVAQVLLTAEDLSSRSRYLNAKATLRALLDLGAIPVINENDTVAFEEIRFGDNDQLSARVAALVEAGLLALLSDVDALYEEDPKKNPQARPIPEVESVEAVLAHAGEENPLGSGGMKSKLLAARIAGRVGIPTLLLPGKRPGVLLQALSGAPLGTYFHARRRYRGEKAWLFGLLRPKGELVLDRGAVRALKERGASLLPAGVKEVRGRFSRGEAVRLLSEEGEEVGVGLANYASEEIARIKGRRSAEIEAVLGYRYTEEVVHRDHLALKEEA”, the “soluble on expression in E. coli” value was “soluble”. As to “MRPKVGVLLKMKREALEELKKYADVEIILYPSGEELKGVIGRFDGIIVSPTTKITREVLENAERLKVISCHSAGYDNIDLEEATKRGIYVTKVSGLLSEAVAEFTVGLIINLMRKIHYADKFIRRGEWESHAKIWTGFKRIESLYGKKVGILGMGAIGKAIARRLIPFGVKLYYWSRHRKVNVEKELKARYMDIDELLEKSDIVILALPLTRDTYHIINEERVKKLEGKYLVNIGRGALVDEKAVTEAIKQGKLKGYATDVFEKEPVREHELFKYEWETVLTPHYAGLALEAQEDVGFRAVENLLKVLRGEVPEDLVNKEVLEVRPIENVKML”, the “soluble on expression in E. coli” value is listed as “soluble”. Under “MRQAASIACIGGANVDRKARLLTPFRLGTSHPVTTTQTAGGVARNIAENLGRLAQPVSLVSTVGDDRDGQWLVDVTSRYVNTSFIVRTPKANTGTYTAVLDERGEMVLALADMAIYHPEPRRPPLPRVSVSGG” stands “not soluble”; under “MRQLLLISDLDNTWVGDQQALEHLQEYLGDRRGNFYLAYATGRSYHSARELQKQVGLMEPDYWLTAVGSEIYHPEGLDQHWADYLSEHWQRDILQAIADGFEALKPQSPLEQNPWKISYHLDPQACPTVIDQLTEMLKETGIPVQVIFSSGKDVDLLPQRSNKGNATQYLQQHLAMEPSQTLVCGDSGNDIGLFETSARGVIVRNAQPELLHWYDQWGDSRHYRAQSSHAGAILEAIAHFDFLS”, “soluble”. As to “MRRAFLVNSDKCIGCRGCAMACKSFNQLEPDRFWRYVYPLDKDIYPHEERAFYSLACNHCEHPACVAACPVEAYTKREDGVVVHNPERCIGCKNCIRNCPYGAPRFNEETRKAEKCSMCYERLDIGMNPACVNACPVGALSIIDLDADPVPDNAVQYPPGFPHMPQLNPGTRFILARQPKQPEDK”, the “soluble on expression in E. coli” value was “not soluble”. As for “MRREKTMDTLIRSIMIKSKRKMDAKVAQFGLTTQQARVLGFLNDNAANEIIQKDLQRIFQTRGASITSLIQGLEKKQLISRKPSLRDGREKVVTLTKEGKDIVDEFNASFPREDDKAKKILSADEYKTFIELLSKIDDQTDLEHHHHHH”, the “soluble on expression in E. coli” value was “soluble”.

Turning to “MRRLLLASSLLTLLAGCANHVIDPHGYDETGTAAYYGTRHHGNRTASGEPFNQNALTAAHRQLPFGTRVKVTNLNNDKSVIVRVNDRGPHTRGRLIDVSREAAEQLGMLRSGTAPVRVQALD”, the “soluble on expression in E. coli” value was “not soluble”. Under “MRRNGSVPDLNKNDAFRRPPAPKGGVEKRKKGRASGLDGRQKRYVRGAESLGSVLNKEIQRRGWGKDIAGGWVTSNWEELVGAKIAQHTRVEMIKDKKLFITCDSTAWATNLRMMQRQILQVIAEKVGPNIITELRIFGPQAPSWRKGPLHVKGRGPRDTYG” stands “not soluble”.
